Experiment [1] concerns the target T1, human hepatocyte growth factor (HGF) (human, UniProt P14210 32-728).
T1 construct: Recombinant protein; The mature protein is a heterodimer of the alpha and beta subunits; also called human HGF; full length HGF
As to the kind of experiment: neutralization ELISA (right table): inhibition of the binding of soluble Met (2 nM) to plate-coated HGF, detected with biotinylated anti-cMetR antibody and Eu-streptavidin; column head 'IC50 IP (nM)'. The procedure:
A neutralization ELISA assay was developed to assess whether the antibodies discussed in Example 6 could interrupt Met-HGF binding. Delphia 96-well plates (Cat#: AAAND-0001, Wallac Inc., Gaithersburg, Md.) were coated with HGF by adding 100 μl of HGF at 6.25 μg/ml per well. The plates were incubated at 37° C. for 1 hour or at 4° C. overnight. The plates were then blocked with 5% BSA (Cat#50-61-00, KPL, Gaithersburg, Md.) in PBS containing 0.1% Tween 20 for 1 hour at room temperature with shaking.
Test samples were prepared by separately mixing soluble Met (2 nM, 0.256 μg/ml) with different concentrations of a particular antibody to HGF being tested. The concentrations tested were: 667 nM, 223 nM, 74.1 nM, 24.7 nM, 8.2 nM, 2.7 nM, 0.91 nM, 0.30 nM, 0.10 nM, and 0.034 nM. A volume of 100 μl of a test sample was added to each well of the plates. The plates were then incubated at 4° C. overnight and then washed 4 times with PBS containing 0.1% Tween 20. Next, 100 μl per well of Biotinylated anti-cMetR antibody (Cat#: BAF358, R&D Systems Inc., Minneapolis, Minn.) at 2 μg/ml, was added. […] The plates were then incubated for 2 hours with shaking, and were washed 4 times with PBS containing 0.1% Tween 20. Eu-streptavidin (1:1000 dilution in Assay buffer) (Cat#1244-360, Wallac Inc., Gaithersburg, Md.) was added and the plates were shaken at room temperature for 1 hour. The plates were then washed 4 times with PBS containing 0.1% Tween 20. Next, 100 μl of enhancement buffer (Wallac Inc., Cat#: 1244-105, Gaithersburg, Md.) was added. After at least for 5 minutes, the plates were read using Europium method on Victor 2 (1420 Multilabel Counter, Wallac Inc., Gaithersburg, Md.).
Percent inhibition of Met binding to HGF (i.e. neutralization) was calculated and IC₅₀ values were determined using the 4 parameter fit equation Excelfit, Version 2.0.6, (Microsoft Inc, Seattle, Wash.). In the presence of the antibodies to HGF discussed in Examples 6, Met binding to HGF was neutralized.
(An ELISA detects its analyte on a solid surface through an enzyme-linked reagent.)

Experiment [2] deals with human HGF-avidin fusion protein with the point mutation hHGFN601S (chicken; human, UniProt P02701 25-152; P14210 32-728, limits assumed). In words: avidin fusion protein captured on biotin-coated beads, PE anti-human F(ab')2, FACS. On the procedure:
(§1) These constructs were expressed and subjected to binding analysis as described in Examples 8C and 8D. […] The resulting bead-protein complexes were labeled by adding FITC labeled anti-avidin antibody (Vector Lab, Burlingame, Calif., Cat. # SP-2040). The presence of antibodies to HGF was determined by adding phycoerythrin (PE) labeled goat anti-human F(ab′)2 antibody (Southern Biotech Associates, Inc, Birmingham, Ala., Cat #2043-09). Those samples were then subjected to Fluorescence Activated Cell Sorter (FACS) analysis. Bead complexes labeled by FITC (which indicated the presence of avidin) and/or PE (which indicated the presence of antibody to HGF) were detected on a Becton Dickinson Bioscience FACScan (BD, Franklin Lakes, N.J.). In some cases, after expression normalization using FITC, single-color FACS analysis was performed following antibody binding by the PE label. This method increased the sensitivity of the assay and aided the measurement of binding with constructs that were not expressed at very high levels.

Experiment [3] deals with human HGF-avidin fusion protein with the point mutation hHGFG555E (chicken; human, UniProt P02701 25-152; P14210 32-728, limits assumed). The experiment is described as above. On the procedure:
as §1

For experiment [4], the target named is human HGF-avidin fusion protein with the point mutation hHGFD592N (chicken; human, UniProt P02701 25-152; P14210 32-728, limits assumed). The experiment is described as above. The procedure: as §1
Experiment [5] concerns the target T2, human HGF-avidin fusion protein with a two amino acid insertion (mouse amino acids 540N and 541K) (chicken; human, UniProt P02701 25-152; P14210 32-728, limits assumed).
T2 construct: also called hHGF DK insertion
The experiment is described as above. The procedure: as §1

Experiment [6] has as its target human HGF-avidin fusion protein with the point mutation hHGFR647Q (chicken; human, UniProt P02701 25-152; P14210 32-728, limits assumed). The description is as above. The procedure: as §1
For experiment [7], the target named is human HGF-avidin fusion protein with the point mutation hHGFC561R (chicken; human, UniProt P02701 25-152; P14210 32-728, limits assumed). The description is as above. The procedure: as §1
Sequence of human HGF-avidin fusion protein with the point mutation hHGFC561R (P02701 other isoform, or with tags, fused parts or gaps limits assumed): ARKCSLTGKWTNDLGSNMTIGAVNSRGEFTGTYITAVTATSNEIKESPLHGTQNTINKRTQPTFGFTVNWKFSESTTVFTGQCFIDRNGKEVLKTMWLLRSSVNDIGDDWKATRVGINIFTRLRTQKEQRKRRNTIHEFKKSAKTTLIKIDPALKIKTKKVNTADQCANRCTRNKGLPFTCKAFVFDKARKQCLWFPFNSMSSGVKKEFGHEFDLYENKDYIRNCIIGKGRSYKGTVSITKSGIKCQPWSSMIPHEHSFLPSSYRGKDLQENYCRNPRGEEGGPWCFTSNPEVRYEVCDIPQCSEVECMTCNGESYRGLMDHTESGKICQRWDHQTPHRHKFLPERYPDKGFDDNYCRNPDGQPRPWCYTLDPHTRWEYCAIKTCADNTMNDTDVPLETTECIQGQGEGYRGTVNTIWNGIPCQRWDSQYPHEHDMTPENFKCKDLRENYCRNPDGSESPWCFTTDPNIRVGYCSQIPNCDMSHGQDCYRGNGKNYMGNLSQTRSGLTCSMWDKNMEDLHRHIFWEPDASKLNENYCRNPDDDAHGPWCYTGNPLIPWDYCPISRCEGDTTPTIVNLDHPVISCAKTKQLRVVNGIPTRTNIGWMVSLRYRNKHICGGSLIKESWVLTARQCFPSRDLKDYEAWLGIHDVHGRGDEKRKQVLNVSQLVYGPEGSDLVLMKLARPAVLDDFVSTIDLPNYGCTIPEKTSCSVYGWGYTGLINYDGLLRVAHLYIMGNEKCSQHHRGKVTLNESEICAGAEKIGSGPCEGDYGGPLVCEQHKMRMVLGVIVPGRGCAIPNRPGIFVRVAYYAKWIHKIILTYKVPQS

Sequence of human HGF-avidin fusion protein with the point mutation hHGFD592N (P02701 other isoform, or with tags, fused parts or gaps limits assumed): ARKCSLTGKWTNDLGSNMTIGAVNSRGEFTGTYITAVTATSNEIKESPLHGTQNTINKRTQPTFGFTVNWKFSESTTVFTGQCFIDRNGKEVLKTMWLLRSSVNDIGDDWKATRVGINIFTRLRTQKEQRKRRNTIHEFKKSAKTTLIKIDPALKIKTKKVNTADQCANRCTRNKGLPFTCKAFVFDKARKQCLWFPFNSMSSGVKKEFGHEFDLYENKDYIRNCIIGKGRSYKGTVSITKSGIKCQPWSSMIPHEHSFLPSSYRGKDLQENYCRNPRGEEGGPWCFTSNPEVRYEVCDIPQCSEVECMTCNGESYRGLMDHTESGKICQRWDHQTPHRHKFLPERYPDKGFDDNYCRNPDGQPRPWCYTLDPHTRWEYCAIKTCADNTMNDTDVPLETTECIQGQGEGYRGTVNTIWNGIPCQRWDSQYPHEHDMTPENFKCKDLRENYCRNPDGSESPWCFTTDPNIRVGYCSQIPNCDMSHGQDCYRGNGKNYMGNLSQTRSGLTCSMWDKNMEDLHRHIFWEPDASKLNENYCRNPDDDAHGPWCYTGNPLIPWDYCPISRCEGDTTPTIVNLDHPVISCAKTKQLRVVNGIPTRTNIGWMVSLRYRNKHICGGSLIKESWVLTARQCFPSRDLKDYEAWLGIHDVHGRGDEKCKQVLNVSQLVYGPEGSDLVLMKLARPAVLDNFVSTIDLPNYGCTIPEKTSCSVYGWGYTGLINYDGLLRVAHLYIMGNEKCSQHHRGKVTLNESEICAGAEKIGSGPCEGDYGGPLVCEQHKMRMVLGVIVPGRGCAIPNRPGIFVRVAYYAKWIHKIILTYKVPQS
Sequence of human HGF-avidin fusion protein with the point mutation hHGFG555E (P02701 other isoform, or with tags, fused parts or gaps limits assumed): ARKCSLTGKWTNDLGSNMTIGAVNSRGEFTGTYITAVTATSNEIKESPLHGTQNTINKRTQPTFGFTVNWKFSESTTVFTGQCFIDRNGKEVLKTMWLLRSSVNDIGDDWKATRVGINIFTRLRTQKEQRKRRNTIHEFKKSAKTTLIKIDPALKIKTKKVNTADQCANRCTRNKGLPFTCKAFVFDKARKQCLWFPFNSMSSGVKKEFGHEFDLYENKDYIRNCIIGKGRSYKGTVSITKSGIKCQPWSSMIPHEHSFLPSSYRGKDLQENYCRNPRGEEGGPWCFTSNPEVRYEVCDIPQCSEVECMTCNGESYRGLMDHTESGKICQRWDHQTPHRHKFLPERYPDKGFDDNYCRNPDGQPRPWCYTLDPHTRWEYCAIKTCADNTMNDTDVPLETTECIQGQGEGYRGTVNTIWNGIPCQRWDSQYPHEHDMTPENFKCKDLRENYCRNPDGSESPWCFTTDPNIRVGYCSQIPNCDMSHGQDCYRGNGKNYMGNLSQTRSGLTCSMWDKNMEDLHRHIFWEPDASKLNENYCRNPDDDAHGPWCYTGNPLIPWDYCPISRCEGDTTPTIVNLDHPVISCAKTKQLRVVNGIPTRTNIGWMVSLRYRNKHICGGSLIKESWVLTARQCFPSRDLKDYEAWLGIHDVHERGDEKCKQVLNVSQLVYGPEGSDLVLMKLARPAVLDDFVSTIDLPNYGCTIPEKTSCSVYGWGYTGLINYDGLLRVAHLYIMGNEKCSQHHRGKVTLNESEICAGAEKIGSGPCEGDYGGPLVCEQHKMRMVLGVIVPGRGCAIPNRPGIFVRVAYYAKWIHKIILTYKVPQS
T2 sequence (P02701 other isoform, or with tags, fused parts or gaps limits assumed): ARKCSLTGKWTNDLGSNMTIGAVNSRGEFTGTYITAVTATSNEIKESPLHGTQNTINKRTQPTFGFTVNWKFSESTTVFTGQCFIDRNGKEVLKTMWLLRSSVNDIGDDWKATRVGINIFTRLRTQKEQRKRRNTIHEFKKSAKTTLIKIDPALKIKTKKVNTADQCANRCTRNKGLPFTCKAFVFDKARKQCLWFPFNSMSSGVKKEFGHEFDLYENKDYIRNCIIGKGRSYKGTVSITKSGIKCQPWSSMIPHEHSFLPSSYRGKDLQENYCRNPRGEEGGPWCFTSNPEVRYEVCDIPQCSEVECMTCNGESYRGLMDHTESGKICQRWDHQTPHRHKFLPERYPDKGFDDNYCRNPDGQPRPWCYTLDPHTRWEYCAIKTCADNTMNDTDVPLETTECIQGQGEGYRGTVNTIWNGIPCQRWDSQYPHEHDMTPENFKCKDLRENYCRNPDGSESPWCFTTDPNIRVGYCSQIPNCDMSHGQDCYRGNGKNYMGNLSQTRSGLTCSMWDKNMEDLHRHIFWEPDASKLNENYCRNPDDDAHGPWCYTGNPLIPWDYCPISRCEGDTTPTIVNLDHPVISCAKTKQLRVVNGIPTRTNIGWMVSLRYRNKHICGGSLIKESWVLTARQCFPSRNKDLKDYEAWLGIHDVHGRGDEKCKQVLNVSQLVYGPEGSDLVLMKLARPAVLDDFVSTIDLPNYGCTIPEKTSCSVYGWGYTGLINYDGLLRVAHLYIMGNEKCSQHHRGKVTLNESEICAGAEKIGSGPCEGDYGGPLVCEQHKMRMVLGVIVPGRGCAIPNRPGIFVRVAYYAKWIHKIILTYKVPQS
Sequence of human HGF-avidin fusion protein with the point mutation hHGFN601S (P02701 other isoform, or with tags, fused parts or gaps limits assumed): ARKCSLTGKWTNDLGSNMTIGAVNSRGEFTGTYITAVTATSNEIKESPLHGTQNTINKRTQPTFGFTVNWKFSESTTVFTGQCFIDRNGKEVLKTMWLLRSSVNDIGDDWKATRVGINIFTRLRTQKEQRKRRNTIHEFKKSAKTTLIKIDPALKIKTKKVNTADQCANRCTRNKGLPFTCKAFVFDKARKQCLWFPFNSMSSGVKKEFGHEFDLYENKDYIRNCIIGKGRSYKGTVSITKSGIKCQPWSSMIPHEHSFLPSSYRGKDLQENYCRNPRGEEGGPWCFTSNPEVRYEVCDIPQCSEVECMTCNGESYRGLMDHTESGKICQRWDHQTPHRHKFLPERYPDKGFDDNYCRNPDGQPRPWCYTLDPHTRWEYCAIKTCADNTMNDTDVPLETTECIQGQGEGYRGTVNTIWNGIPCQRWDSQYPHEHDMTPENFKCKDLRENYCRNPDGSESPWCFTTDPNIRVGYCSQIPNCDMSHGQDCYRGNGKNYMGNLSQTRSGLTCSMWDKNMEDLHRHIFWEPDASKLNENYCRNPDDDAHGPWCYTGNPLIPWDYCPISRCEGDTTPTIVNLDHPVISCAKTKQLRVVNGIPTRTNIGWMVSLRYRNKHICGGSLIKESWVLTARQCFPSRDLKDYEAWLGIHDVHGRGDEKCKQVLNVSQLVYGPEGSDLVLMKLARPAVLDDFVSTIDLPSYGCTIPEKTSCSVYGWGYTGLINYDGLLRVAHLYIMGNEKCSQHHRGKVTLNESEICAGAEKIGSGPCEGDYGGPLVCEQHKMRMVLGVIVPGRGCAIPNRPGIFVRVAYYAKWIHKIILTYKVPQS
T1 sequence (P14210 32-728 limits assumed): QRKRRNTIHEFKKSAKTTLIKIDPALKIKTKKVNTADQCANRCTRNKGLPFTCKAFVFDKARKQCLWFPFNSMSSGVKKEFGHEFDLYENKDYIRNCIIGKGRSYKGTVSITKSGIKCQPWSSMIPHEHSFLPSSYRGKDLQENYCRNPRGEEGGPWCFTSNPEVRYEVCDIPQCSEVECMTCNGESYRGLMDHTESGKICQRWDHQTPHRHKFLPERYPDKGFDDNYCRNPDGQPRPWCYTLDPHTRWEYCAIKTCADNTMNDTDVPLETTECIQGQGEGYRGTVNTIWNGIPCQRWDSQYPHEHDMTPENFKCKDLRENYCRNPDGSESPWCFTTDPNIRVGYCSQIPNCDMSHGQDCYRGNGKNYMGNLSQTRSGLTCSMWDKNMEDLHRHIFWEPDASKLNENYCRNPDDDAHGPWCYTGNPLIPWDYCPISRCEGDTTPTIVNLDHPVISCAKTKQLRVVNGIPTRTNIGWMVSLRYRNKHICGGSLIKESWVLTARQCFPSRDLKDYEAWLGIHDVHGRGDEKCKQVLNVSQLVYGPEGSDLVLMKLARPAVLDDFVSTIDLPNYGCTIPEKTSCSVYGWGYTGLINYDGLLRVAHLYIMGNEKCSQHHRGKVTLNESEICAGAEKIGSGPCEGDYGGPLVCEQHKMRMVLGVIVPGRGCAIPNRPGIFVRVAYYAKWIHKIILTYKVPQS

B1: antibody 2.12.1 (antibody, human IgG2, kappa, V domains shown)
VH: QVQLQESGPGLVKPSETLSLTCTVSGGSISIYYWSWIRQPPGKGLEWIGYVYYSGSTNYNPSLKSRVTISVDTSKNQFSLKLNSVTAADTAVYYCARGGYDFWSGYFDYWGQGTLVTVSS
VL: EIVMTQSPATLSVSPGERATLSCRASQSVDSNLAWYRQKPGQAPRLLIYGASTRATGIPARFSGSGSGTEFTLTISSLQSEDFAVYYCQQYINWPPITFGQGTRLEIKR
Regarding B1, in experiment [1], the IC50 worked out at 0.52 nM. Further, the binding result in experiment [2] is given as “binds”; in experiment [3], “no binding”; in experiment [4], “binds”; in experiment [5] it was “no binding”; in experiment [6], “binds”; in experiment [7], “no binding”.

B2: antibody 2.4.4 (antibody, human IgG2, kappa, V domains shown)
VH: QVQLKESGPGLVKPSQTLSLTCTVSGGSISSGVYYWSWIRQHPGKGLEWIGYFYYSGNTYHNPSLKSRVTISVDTSKNQFSLKLSSVTAADTAVYYCARDRSGYDHPDAFDIWGQGTMVTVSS
VL: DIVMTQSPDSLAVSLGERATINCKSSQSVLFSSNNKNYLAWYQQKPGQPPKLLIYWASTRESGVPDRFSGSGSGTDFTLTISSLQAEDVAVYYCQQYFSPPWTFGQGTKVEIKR
notes: also called FITC-labeled antibody 2.4.4
B2: the binding result is listed as “binds” in experiment [2]; “binds” in experiment [3]; “binds” in experiment [4]; “no binding” in experiment [5]; “binds” in experiment [6]; “no binding” in experiment [7].

Broadly, the IC50 is the midpoint of a concentration-inhibition curve. Read a high IC50 as weaker potency in that assay.
